We go through five molecules from patent publication US20240168030A1, “DIRECT FLUORESCENT GLYCAN LABELING” (BIO-TECHNE CORPORATION, priority 2019, published 2024).

The target of one data set is T1, FUT9 (Homo sapiens, UniProt Q9Y231).
T1 construct: purchased Bio-Techne (Minneapolis, MN)
T1 sequence (Q9Y231 1-359): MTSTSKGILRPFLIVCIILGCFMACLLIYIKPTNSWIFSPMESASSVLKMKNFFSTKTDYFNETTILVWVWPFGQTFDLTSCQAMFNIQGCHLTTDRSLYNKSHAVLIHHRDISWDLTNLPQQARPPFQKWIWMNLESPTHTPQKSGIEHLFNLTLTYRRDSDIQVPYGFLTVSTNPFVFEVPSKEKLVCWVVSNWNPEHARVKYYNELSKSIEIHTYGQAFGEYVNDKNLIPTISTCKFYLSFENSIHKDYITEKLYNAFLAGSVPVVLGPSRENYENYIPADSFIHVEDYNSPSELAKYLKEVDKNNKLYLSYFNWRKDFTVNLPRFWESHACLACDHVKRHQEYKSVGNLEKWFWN
Description: Fluorescent labeling with fluorophore-conjugated fucose by FUT9. The format is biochemical. The conditions noted are these: 0.3 μg FUT9, 0.2 nmol donor, 30 μl, 37° C., FIG. 17. The protocol: (§1) FIG. 9A-FIG. 9B show exemplary results of probing substrate glycans of various fucosyltransferases on fetuin and asialofetuin. FIG. 9A. Probing substrate glycans of fucosyltransferases with guanosine 5′-diphosphate activated Cy5 conjugated fucose (GDP-Cy5-Fuc). […] FUT9 labeled itself (indicated by an arrow in the gel). FIG. 9B. Tolerance of Alexa-Fluor®555 (555), Alexa-Fluor®488 (488), and Cy5 by the indicated fucosyltransferases. All reactions were incubated at 37° C. for 30 minutes and then separated on SDS-PAGE and imaged with silver staining (upper panels) and fluorescent imager (lower panels). M, molecular marker.
FIG. 10A-FIG. 10D show exemplary results of probing core-6 fucosylation on antibodies by FUT8 incorporation of fluorophores. FIG. 10A. Results of probing substrate glycans of FUT8 (F8) and FUT9 (F9) on Cantuzumab, an anti-Muc1 therapeutic antibody, and NIST reference mAb 8671 using guanosine 5′-diphosphate activated Alexa-Fluor®555 conjugated fucose (GDP-AF555-Fuc) (555), GDP-Cy5-fucose (Cy5), and guanosine 5′-diphosphate activated Alexa-Fluor®488 conjugated fucose (GDP-AF488-Fuc) (488) as donor substrates. Cantuzumab was expressed in FUT8 knockout cells and is devoid of core-6 fucose. Molecular marker (MM) is a prestained Western molecular marker (Bio-Rad Laboratories, Hercules, CA). […] The product of each reaction was separated using SDS-PAGE and imaged with trichloroethanol (TCE) staining (upper panel) and fluorescent imager (lower panel). Labeling on the light chains of the antibodies by Alexa-Fluor®555 is likely the result of non-specific staining due to the use of unpurified GDP-AF555-Fuc that contained free Alexa-Fluor®555. FIG. 10B. […] FIG. 10C. […] FIG. 10D. Schematics of the glycan structures analyzed in FIG. 10B and FIG. 10C.
Mouse IgG (R&D Systems, Minneapolis, MN) was digested with Endo S thoroughly and labeled with 0.3 μg of FUT9 and 0.2 nmol of GDP-Cy5-Fuc in 30 μl at 37° C. for the indicated time points. The glycans were also pretreated with B4GalT2 for 5 minutes at 37° C. and then labeled in the same way. The reactions were separated on 15% SDS PAGE. B4GalT2 pretreatment converted all G1′ to G2′. Maximal labeling on G1′ and G2′ were achieved around 30 minutes. […] The heavy chain (HC) and light chain (LC) were visible in the TCE image. M, Western blot marker (Bio-Rad Laboratories, Hercules, CA).
(§2) For a typical labeling reaction, 1 μg to 5 μg target protein was mixed with 0.2 nmol GDP-f-Fuc and 0.2 μg of a fucosyltransferase in 30 μL buffer of 25 mM Tris pH 7.5, 10 mM MnCl2. The mixture was incubated at 37° C. for 30 minutes. The reaction was then separated by sodium dodecyl sulfate—polyacrylamide gel electrophoresis (SDS-PAGE) and the gel was directly imaged using a fluorescent imager FluorChem M ProteinSimple, Bio-Techne, Minneapolis, MN), followed by imaging with traditional protein imaging methods such as silver staining or trichloroethanol (TCE) staining.
The four enzymes tolerated the three fluorophores to different levels.

Data set [1] in a line: Enzymatic synthesis of Le^x and sLe^x by glycan gel electrophoresis, substrate G2. The format is biochemical. The conditions noted are these: for Relative activity: normalized to FUT6 on sLe^x synthesis. The procedure:
FIG. 21A. Schematic view of the enzymatic steps for Le^X and sLe^X synthesis on the antibody glycan G0. The glycan short names follow that of FIG. 10. FIG. 21B Kinetic comparison of galactosylation on G0 by B4GalT1, sialyation on G2 by ST3Gal4 and ST6Gal1, and fucosylation on A2[3] by FUT7. The reaction time for B4GalT1 was 10 minutes. The reaction time for ST3Gal4, FUT7 and ST6Gal1 was 5 hours. In each case, the labeling enzyme was subject to a 3-fold serial dilution starting from 1 μg each of B4GalT1, FUT7 and ST6Gal1, and 3 μg ST3Gal4. FIG. 21C. […] Reaction time for both cases was 20 minutes. […] FIG. 21D. […] Reaction time for both cases was 20 minutes.
For a typical labeling reaction, 1 μg to 5 μg target protein was mixed with 0.2 nmol fluorophore-conjugated GDP-fucose and 0.2 μg of a fucosyltransferase in 30μL 25 mM Tris pH 7.5, 10 mM MnCl2. The mixture was incubated at 37° C. for 30 minutes. […] To release labeled glycans from a glycoprotein, the sample was first denatured by heating at 95° C. for two minutes in the presence of 0.5% SDS and 80 mM β-mercaptoethanol and then renatured with 1% Triton X-100, and finally treated with PNGase F at 10:1 mass ratio at 37° C. for 20 minutes. To release glycans from antibody, a sample was directly treated with Endo S at 10:1 mass ratio at 37° C. for 20 minutes. All samples were separated by sodium dodecyl sulfate—polyacrylamide gel electrophoresis (SDS-PAGE) at […]. For separating labeled glycoproteins and antibodies, 4-20% gradient SDS gel was used. For separating labeled free glycans, 15% or 17% gel was used. After separation, all gels were imaged using a FluorChem M imager (ProteinSimple, Bio-Techne, Minneapolis, MN). For glycoproteins samples, the gel was also imaged with traditional methods such as silver staining or trichloroethanol (TCE) staining.
For sLe^x synthesis, G0 was first converted to G2 by B4GalT1, then converted to A2[3] by ST3Gal4, and finally converted to A2[3]F2 (carrier of sLe^x) by FUT7 (FIG. 21A). During these steps, different amounts of enzymes, and multiple reaction times were applied to reveal the intermediate products.
Intermediate products are signs for the progress of each enzymatic step.

Data set [2] concerns fetal bovine fetuin and asialofetuin. The experiment in a line: Labeling of fetuin and asialofetuin by fucosyltransferases with GDP-Cy5-Fuc. The format is biochemical. The conditions noted are these: GDP-Cy5-Fuc donor, FIG. 9A. The procedure: as §1, §2
The labeled samples were then separated on SDS-PAGE, followed by traditional protein gel imaging and fluorescent imaging.

For a further data set, the system named is asialofetuin. Description: Asialofetuin labeling with variable amounts of ST3Gal1 or ST6Gal1 (FIG. 7). The format is biochemical, bovine. Conditions: 5 μg asialofetuin, 0.2 nmol CMP-Cy5-SA, 30 μL, 37° C., 30 minutes.
In data set [3] the test system is fetal bovine fetuin and asialofetuin. The experiment in a line: Labeling of fetuin and asialofetuin by sialyltransferases with CMP-f-SA. The format is biochemical. Conditions: CMP-f-SA donors, FIG. 2.

Turning to “guanosine 5′-diphosphate activated Cy5 conjugated fucose [GDP-Cy5-Fuc]”, the “Time to maximal labeling of B4GalT2 by FUT9” value on FUT9 turned out to be 20 min. Further, the “Time to maximal labeling on G1′ and G2′ by FUT9” value on FUT9 (Endo S digested mouse IgG) is listed as “around 30 minutes”.

B1: FUT9: recombinant α-3 fucosyltransferase strictly active on lactosamine (protein, UniProt Q9Y231 1-359, looked up)
4-galactosyl-N-acetylglucosami …: MTSTSKGILRPFLIVCIILGCFMACLLIYIKPTNSWIFSPMESASSVLKMKNFFSTKTDYFNETTILVWVWPFGQTFDLTSCQAMFNIQGCHLTTDRSLYNKSHAVLIHHRDISWDLTNLPQQARPPFQKWIWMNLESPTHTPQKSGIEHLFNLTLTYRRDSDIQVPYGFLTVSTNPFVFEVPSKEKLVCWVVSNWNPEHARVKYYNELSKSIEIHTYGQAFGEYVNDKNLIPTISTCKFYLSFENSIHKDYITEKLYNAFLAGSVPVVLGPSRENYENYIPADSFIHVEDYNSPSELAKYLKEVDKNNKLYLSYFNWRKDFTVNLPRFWESHACLACDHVKRHQEYKSVGNLEKWFWN
On to B1, for which, in data set [1] (substrate G2, completed product Le^x), the “Activity based on reaction completion” value is 2.3 pmol/min/µg. The same molecule displayed a Relative activity in data set [1] (substrate G2, product Le^x) of 17. The “Which of fetuin and asialofetuin the fucosyltransferase labeled” value in data set [2] was “labeled asialofetuin”.

B2: α-2,3-sialyltransferase 1 (protein, UniProt Q11201 1-340, looked up)
CMP-N-acetylneuraminate-beta-g …: MVTLRKRTLKVLTFLVLFIFLTSFFLNYSHTMVATTWFPKQMVLELSENLKRLIKHRPCTCTHCIGQRKLSAWFDERFNQTMQPLLTAQNALLEDDTYRWWLRLQREKKPNNLNDTIKELFRVVPGNVDPMLEKRSVGCRRCAVVGNSGNLRESSYGPEIDSHDFVLRMNKAPTAGFEADVGTKTTHHLVYPESFRELGDNVSMILVPFKTIDLEWVVSAITTGTISHTYIPVPAKIRVKQDKILIYHPAFIKYVFDNWLQGHGRYPSTGILSVIFSMHVCDEVDLYGFGADSKGNWHHYWENNPSAGAFRKTGVHDADFESNVTATLASINKIRIFKGR
notes: recombinant human sialyltransferase, Core-1 O-glycan specific
As for B2, in the data set on asialofetuin, the “Enzyme amount achieving maximal labeling of asialofetuin” value was determined as 0.5 µg and the “Enzyme amount showing clear visible labeling on asialofetuin” value is 0.063 µg. Also, the “Which of fetuin and asialofetuin the sialyltransferase labeled” value in data set [3] is given as “only labeled asialofetuin”.

B3: α-2,6-sialyltransferase 1 (protein, UniProt P15907 1-406, looked up)
Beta-galactoside …: MIHTNLKKKFSCCVLVFLLFAVICVWKEKKKGSYYDSFKLQTKEFQVLKSLGKLAMGSDSQSVSSSSTQDPHRGRQTLGSLRGLAKAKPEASFQVWNKDSSSKNLIPRLQKIWKNYLSMNKYKVSYKGPGPGIKFSAEALRCHLRDHVNVSMVEVTDFPFNTSEWEGYLPKESIRTKAGPWGRCAVVSSAGSLKSSQLGREIDDHDAVLRFNGAPTANFQQDVGTKTTIRLMNSQLVTTEKRFLKDSLYNEGILIVWDPSVYHSDIPKWYQNPDYNFFNNYKTYRKLHPNQPFYILKPQMPWELWDILQEISPEEIQPNPPSSGMLGIIIMMTLCDQVDIYEFLPSKRKTDVCYYYQKFFDSACTMGAYHPLLYEKNLVKHLNQGTDEDIYLLGKATLPGFRTIHC
notes: recombinant human sialyltransferase, N-glycan specific
B3: the “Time for the complete conversion of G2 to A2[6]” value in data set [1] (FIG. 21B) was found to be 5 h. For the same molecule, the “Activity based on reaction completion” value in data set [1] (substrate G2, completed product A2[6]) was determined as 0.025 pmol/min/µg. In data set [1] (substrate G2, product A2[6]), the Relative activity amounted to 0.19. Also, in the data set with asialofetuin, the “Enzyme amount achieving maximal labeling of asialofetuin” value is 0.25 µg and the “Enzyme amount showing clear visible labeling on asialofetuin” value was 0.016 µg. In addition, the “Which of fetuin and asialofetuin the sialyltransferase labeled” value in data set [3] is given as “only labeled asialofetuin”.

B4: FUT2: recombinant fucosyltransferase, α1-2 linked fucose (protein, UniProt Q10981 1-343, looked up)
Galactoside …: MLVVQMPFSFPMAHFILFVFTVSTIFHVQQRLAKIQAMWELPVQIPVLASTSKALGPSQLRGMWTINAIGRLGNQMGEYATLYALAKMNGRPAFIPAQMHSTLAPIFRITLPVLHSATASRIPWQNYHLNDWMEEEYRHIPGEYVRFTGYPCSWTFYHHLRQEILQEFTLHDHVREEAQKFLRGLQVNGSRPGTFVGVHVRRGDYVHVMPKVWKGVVADRRYLQQALDWFRARYSSLIFVVTSNGMAWCRENIDTSHGDVVFAGDGIEGSPAKDFALLTQCNHTIMTIGTFGIWAAYLTGGDTIYLANYTLPDSPFLKIFKPEAAFLPEWTGIAADLSPLLKH
On to B4, for which, in data set [2], the “Which of fetuin and asialofetuin the fucosyltransferase labeled” value was “labeled asialofetuin”.
